In US20140196172A1, “Organelle Targeting Nanocarriers” (Her Majesty the Queen in Right of Canada, as Repre sented …, priority 2011, published 2014):

What was measured:
[1] = tested on: proplastids of triticale microspores; experiment: qRT-PCR of gfp mRNA, microspores transfected with pWCaadA16GFP; format: cell-based; details: gfp reporter construct
Text: FIG. 18 is a plot showing the level of expression (fold increase, average of 4 replicates) of GFP in triticale microspores transfected with the pWCaadA16GFP plasmid in the presence of cTP1 (SEQ ID NO: 6), cTP2 (SEQ ID NO: 7), cTP3 (SEQ ID NO: 8), cTP4 (SEQ ID NO: 9) or cTP5 (SEQ ID NO: 10) compared to the level of expression (fold increase) of the internal control elongation factor 1a (EF1a), as measured by quantitative real time PCR of mRNA levels;
Wheat chloroplast aadA16GFP reporter plasmid (pWCaadA16GFP, FIG. 12) is a 4212 base pair wheat specific plastid transformation vector, which targets insertions into the tml-tmA inverted repeat regions of the Triticum aestivum plastid genome at nucleotides 92850-93727 and 93794-94671 (GenBank accession No. AB042240.3). A multiple cloning site is introduced following the tml target insertion sequence. The selection marker gene is an organelle codon specific aad-gfp fusion gene, which facilitates a dual selection method of spectinomycin resistance through an aadA derivative and visual detection by GFP fluorescence (GenBank accession No. ABX39486; Khan and Maliga, Nat. Biotechnol. (1999 September) 17(9): 910-5). The selection marker gene is driven by the Triticum aestivum plastid genome promoter (psbA) at nucleotides 1282-1153 (GenBank accession No. AB042240.3). The aad-gfp fusion gene is terminated with the rice psbA terminator sequence derived from chloroplast transformation vector pVSR326 nucleotides 4014-4387 (GenBank accession No. AF527485.1).
The dsDNA construct (pWMaadA16GFP for mitochondrial expression or pWCaadA16GFP for expression in chloroplasts) is combined with the mTP (for mitochondrial expression) or cTP (for expression in chloroplasts) in the amounts used in the protoplast transformation experiments described above in a final volume of 100 μl of NBP-99 solution. The mixture is incubated for 10 minutes at room temperature, then incubated with isolated triticale microspores (500 μl, 10^6 microspores/ml, prepared as described in Example 2) for 1 h in the dark at room temperature. NBP-99 solution (500 μl) is added and the mixture is incubated in the dark for 24 h. The cells are imaged using confocal microscopy, as described in Example 2, using MitoTracker® Orange staining to visualize mitochondria.
Microspores are disrupted using a cleaned ceramic bead and aggressive shaking as the tissue is thawing. RLT buffer/B-Me (450 μl) is added and the sample is vortexed. The sample is heated at 55° C. for 1 minute and vortexed again. RNA is extracted using an RNeasy™ Plant Mini Kit (Qiagen), incorporating on-column DNase I digestion into the protocol. The final elution volume is 40 μl. RNA is assessed using both agarose gel […] (to ensure RNA is intact) and spectrophotometry (for quantification).
cDNA is generated using a First Strand Synthesis kit (Invitrogen). RNA (1 μg) is added to each sample and the manufacturer's protocol for synthesis followed, with the exception that the volume of the reaction mixture is increased from 20 μl to 30 μl. A negRT sample containing all reagents but no RNA is included in the cDNA synthesis as a negative control.
Standard curves are generated for both elongation factor 1a (EF1a) (internal control) and green fluorescent protein (GFP) (test) genes. […]
Real time PCR reactions are performed using QuantiTect™ SYBR™ Green PCR Master Mix (Qiagen) in a 20 μl reaction volume. […]

[2] = tested on: Caco-2 (human colonic epithelial cell line); experiment: Uptake of labeled peptides by Caco-2 cells, photometric cell imaging; format: cell-based; details: for Average concentration of labeled peptide measured in cells, Caco-2: cells exposed to labeled peptide at 17 μM; for Photometric Cell Imaging (average counts/sec) Caco-2: 1 hr, background about 1×10^5 counts/sec
Description: Caco-2 and F1112 cells are cultured in Dulbecco's Modified Eagle Medium (DMEM) containing 10% (v/v) fetal bovine serum (FBS) and 50 μg/ml gentamycin at 37° C. in a 95% humidified atmosphere containing 5% CO2. The cells are grown in Falcon™ […] 75 cm^2 cell culture flasks until they reach confluency, then are detached with 0.25% trypsin and 0.02% EDTA and washed with DMEM.
Preparations used for photometric cell imaging are prepared by adding 1000 cells to a Nunc coverglass chamber (2.5 cm^2). Cells are cultured as described above for 3 to 7 days. The cell monolayers are rinsed three times with epithelial cell saline (pH 7.4).
Varying concentrations of fluoresceinated mTPs (100 μM) are added to epithelial cell saline to obtain a final working volume of 400 μl. Final concentrations added to the Caco-2, F1112 and MG cell monolayers as described above are 17 μM, 9 μM and 4 μM. Cells are incubated with the peptides for 1 hr in the dark at 37° C. in a 95% humidified atmosphere containing 5% CO2. At the end of the incubation period, the cell monolayer is rinsed three times with epithelial cell saline and 500 μl of epithelial cell saline is added.
Uptake of labeled peptides by cells is quantified using a photometric detector/cell-imaging system (PTI). An excitation scan is run to determine if uptake has occurred as indicated by peaks at the appropriate wavelengths and if the amount changes in a dose-dependent manner compared to unlabeled cells. A time-based scan is then performed at the optimal excitation and emission wavelength to quantify total uptake, using about 20 cells/view/replicate.

| Sequence | GFP expression by proplastids confirmed by qRT-PCR [1] | Average concentration of labeled peptide measured in cells, Caco-2 [2] [nm] | Photometric Cell Imaging (average counts/sec) Caco-2 ([2]; labeled peptide 4 μM) [counts/sec] | Photometric Cell Imaging (average counts/sec) Caco-2 ([2]; labeled peptide 9 μM) [counts/sec] | Photometric Cell Imaging (average counts/sec) Caco-2 ([2]; labeled peptide 17 μM) [counts/sec] |
| --- | --- | --- | --- | --- | --- |
| MAALIPAIASLPRAQVEKPHPMPVSTRPGLVS (listed as Triticum aestivum) [cTP4] | GFP is expressed |  |  |  |  |
| MQTLTASSSVSSIQRHRPHPAGRRSSSVTFS (listed as Triticum aestivum) [cTP2] | GFP is expressed |  |  |  |  |
| MFSYLPRYPLRAASARALVRATRPSYRSALLRYQ (listed as Triticum aestivum) [mTP1] |  | 70 | 200000 | 1200000 | 1600000 |
| MAAWMRSLFSPLKKLWIRMH (Zea mays) [mTP2] |  | 20 | 340000 | 420000 | 490000 |
| MLFRLRRSVRLRGLLA (listed as Arabidopsis thaliana) [mTP5] |  | 60 | 280000 | 650000 | 1600000 |
| MGGCVSTPKSCVGAKLR (listed as Arabidopsis thaliana) [cTP1] | GFP is expressed |  |  |  |  |
| MSSPPPLFTSCLPASSPSIRRDSTSGSVTSPLR (listed as Arabidopsis thaliana) [cTP5] | GFP is expressed |  |  |  |  |
| MKLLWRLILSRKW (listed as Arabidopsis thaliana) [mTP3] |  | 60 | 460000 | 1200000 | 1600000 |
| MWWRRSRTNSLRYT (listed as Arabidopsis thaliana) [mTP4] |  | 60 | 300000 | 1200000 | 1600000 |
